Data taken from patent US20050196403A1.
Where two headings read alike, the source gives them in different places. Values belong to the binder of their own block, whether it stands above or below them. Non-standard residues stand in square brackets, D forms with d. No end group written: not given here. Abu = CC[C@H](N)C(=O)O

Legend:
HLA-A*1101 (human) [1] = experiment: inhibition of radiolabeled probe peptide binding to purified HLA, gel filtration; settings: remark: other sources report otherwise
HLA-A*0301 (Human) [2] = settings: remark: other sources report otherwise
HLA-A*1101 (Human) [3] = settings: remark: other sources report otherwise
HLA-A*3301 (Human) [4] = settings: remark: other sources report otherwise
HLA-A*0301 (Human) [5] = settings: remark: other sources report otherwise; remark: listed apart in the source
HLA-A*6801 (Human) [6] = settings: remark: other sources report otherwise
HLA-A*3101 (Human) [7] = settings: remark: other sources report otherwise
HLA-A*3301 (human) [8] = experiment: competition with 125I probe peptide, purified HLA class I; settings: remark: other sources report otherwise
HLA-A*0301 (Human) [9] = settings: remark: other sources report otherwise; remark: listed apart in the source
HLA-A*0206 (Human) [10] = experiment: competition vs 125I probe, purified HLA; settings: remark: other sources report otherwise
HLA-A*3101 (human) [11] = experiment: competition with 125I probe peptide, purified HLA class I; settings: remark: other sources report otherwise
HLA-A*0301 (human) [12] = experiment: as above; settings: remark: other sources report otherwise
HLA-A*6801 (human) [13] = experiment: as above; settings: remark: other sources report otherwise
HLA-A*1101 (human) [14] = experiment: as above; settings: remark: other sources report otherwise
HLA-A*2401 (human) = experiment: as above
HLA-A*6802 (human) = experiment: as above; settings: remark: other sources report otherwise
HLA-A*0203 (Human) [15] = experiment: competition vs 125I probe, purified HLA; settings: remark: other sources report otherwise
HLA-A*0203 (human) [16] = experiment: competition with 125I probe peptide, purified HLA class I; settings: remark: other sources report otherwise
HLA-A*0206 (human) [17] = experiment: as above; settings: remark: other sources report otherwise

B2: p53 peptide … (position 123) (peptide)
peptide: TCTYSPALNK
binding affinity ratio to standard peptide (HLA-A*1101 (human) [1]): 0.012

B3: p53 peptide … (position 107) (peptide)
peptide: YGFRLGFLH
binding affinity ratio to standard peptide (HLA-A*1101 (human) [1]): 0.26

B5: p53 peptide … (position 240) (peptide)
peptide: SSCMGGMNR
binding affinity ratio to standard peptide (HLA-A*1101 (human) [1]): 1.4

B6: 1371.14 … p53.101.V2 (peptide)
peptide: KVYQGSYGFR
IC50 (HLA-A*3301 (human) [8]): 10000 nM

B7: p53 peptide … (position 156, 9 amino acids) (peptide)
peptide: RVRAMAIYK
binding affinity ratio (IC50 of standard peptide/IC50 of test peptide) (HLA-A*1101 (Human) [3]): 0.73
binding affinity ratio (IC50 of standard peptide/IC50 of test peptide) (HLA-A*3301 (Human) [4]): 0.0063
binding affinity ratio (IC50 of standard peptide/IC50 of test peptide) (HLA-A*0301 (Human) [5]): 1.5
binding affinity ratio (IC50 of standard peptide/IC50 of test peptide) (HLA-A*6801 (Human) [6]): 0.003
binding affinity ratio (IC50 of standard peptide/IC50 of test peptide) (HLA-A*3101 (Human) [7]): 3.7

B9: p53 peptide … (position 240, 9 amino acids) (peptide)
peptide: SSCMGGMNR
binding affinity ratio (IC50 of standard peptide/IC50 of test peptide) (HLA-A*0301 (Human) [9]): 0.02
binding affinity ratio (IC50 of standard peptide/IC50 of test peptide) (HLA-A*1101 (Human) [3]): 1.4
binding affinity ratio (IC50 of standard peptide/IC50 of test peptide) (HLA-A*0301 (Human) [5]): 0.02

B10: p53 peptide … (position 240, 10 amino acids) (peptide)
peptide: SSCMGGMNRR
binding affinity ratio (IC50 of standard peptide/IC50 of test peptide) (HLA-A*0301 (Human) [9]): 0.0001
binding affinity ratio (IC50 of standard peptide/IC50 of test peptide) (HLA-A*1101 (Human) [3]): 0.086
binding affinity ratio (IC50 of standard peptide/IC50 of test peptide) (HLA-A*0301 (Human) [5]): 0.0001

B12: 1371.24 SVBMGGMNK p53.240.V2B3K9 (peptide)
peptide: SV[Abu]MGGMNK
IC50 (HLA-A*3101 (human) [11]): 9000 nM
IC50 (HLA-A*0301 (human) [12]): 12.5 nM
IC50 (HLA-A*6801 (human) [13]): 29.6 nM
IC50 (HLA-A*1101 (human) [14]): 17.1 nM

B13: p53 peptide … (position 156) (peptide)
peptide: RVRAMAIYK
binding affinity ratio to standard peptide (HLA-A*1101 (human) [1]): 0.73
binding affinity ratio (IC50 of standard peptide/IC50 of test peptide) (HLA-A*0301 (Human) [2]): 1.5

B14: 57.0096 … p53.102.F10 (peptide)
peptide: TYQGSYGFRF
IC50 (HLA-A*2401 (human)): 30 nM

B15: p53 peptide … (position 240) (peptide)
peptide: SSCMGGMNRR
binding affinity ratio to standard peptide (HLA-A*1101 (human) [1]): 0.086

B16: 1371.16 BVYSPALNK p53.124.B1V2 (peptide)
peptide: BVYSPALNK
modifications: here or on the partner: B at position 1 is alpha-amino butyric acid (in place of cysteine)
IC50 (HLA-A*6801 (human) [13]): 500 nM
IC50 (HLA-A*1101 (human) [14]): 12.8 nM

B18: 1329.09 … p53.113 (peptide)
peptide: FLHSGTAKSV
IC50 (HLA-A*6802 (human)): 80000 nM

B20: p53 peptide … (position 123, 10 amino acids) (peptide)
peptide: TCTYSPALNK
binding affinity ratio (IC50 of standard peptide/IC50 of test peptide) (HLA-A*0301 (Human) [9]): 0.0056

B21: 1371.25 SVBMGGMNRK p53.240.V2B3K10 (peptide)
peptide: SV[Abu]MGGMNRK
IC50 (HLA-A*6801 (human) [13]): 17 nM
IC50 (HLA-A*1101 (human) [14]): 75 nM

B22: p53 peptide … (position 122) (peptide)
peptide: VTCTYSPALNK
binding affinity ratio to standard peptide (HLA-A*1101 (human) [1]): 0.12

B23: p53 peptide … (position 111) (peptide)
peptide: LGFLHSGTAK
binding affinity ratio to standard peptide (HLA-A*1101 (human) [1]): 0.0002
binding affinity ratio (IC50 of standard peptide/IC50 of test peptide) (HLA-A*0301 (Human) [2]): 0.0001

B24: p53 peptide TSSSPQPK (position 312, 8 amino acids) (peptide)
peptide: TSSSPQPK
binding affinity ratio (IC50 of standard peptide/IC50 of test peptide) (HLA-A*1101 (Human) [3]): 0.0019

B25: p53 peptide TSSSPQPK (position 312) (peptide)
peptide: TSSSPQPK
binding affinity ratio to standard peptide (HLA-A*1101 (human) [1]): 0.0019

B28: p53 peptide … (position 112) (peptide)
peptide: GFLHSGTAK
binding affinity ratio to standard peptide (HLA-A*1101 (human) [1]): 0.0001
binding affinity ratio (IC50 of standard peptide/IC50 of test peptide) (HLA-A*0301 (Human) [2]): 0.0014

B31: p53 peptide … (position 122, 11 amino acids) (peptide)
peptide: VTCTYSPALNK
binding affinity ratio (IC50 of standard peptide/IC50 of test peptide) (HLA-A*0301 (Human) [9]): 0.07
binding affinity ratio (IC50 of standard peptide/IC50 of test peptide) (HLA-A*1101 (Human) [3]): 0.12
binding affinity ratio (IC50 of standard peptide/IC50 of test peptide) (HLA-A*0301 (Human) [5]): 0.07
binding affinity ratio (IC50 of standard peptide/IC50 of test peptide) (HLA-A*6801 (Human) [6]): 0.0068

Next, values leading:

binding affinity ratio to standard peptide (HLA-A*1101 (human) [1]): 0.091
binding affinity ratio (IC50 of standard peptide/IC50 of test peptide) (HLA-A*0301 (Human) [2]): 0.0015
B1: p53 peptide … (position 283) (peptide)
peptide: RTEEENLRK

binding affinity ratio (IC50 of standard peptide/IC50 of test peptide) (HLA-A*1101 (Human) [3]): 0.091
binding affinity ratio (IC50 of standard peptide/IC50 of test peptide) (HLA-A*3301 (Human) [4]): 0.0006
binding affinity ratio (IC50 of standard peptide/IC50 of test peptide) (HLA-A*0301 (Human) [5]): 0.0015
binding affinity ratio (IC50 of standard peptide/IC50 of test peptide) (HLA-A*6801 (Human) [6]): 0.0001
binding affinity ratio (IC50 of standard peptide/IC50 of test peptide) (HLA-A*3101 (Human) [7]): 0.0002
B4: p53 peptide … (position 283, 9 amino acids) (peptide)
peptide: RTEEENLRK

binding affinity ratio (IC50 of standard peptide/IC50 of test peptide) (HLA-A*0301 (Human) [2]): 3.3
B8: p53 peptide … (position 283) (peptide)
peptide: RTEEENLRKK

IC50 (HLA-A*0206 (Human) [10]): 841 nM
B11: p53.65 … (10-mer) (peptide)
peptide: RMPEAAPPVA

binding affinity ratio to standard peptide (HLA-A*1101 (human) [1]): 0.0002
binding affinity ratio (IC50 of standard peptide/IC50 of test peptide) (HLA-A*0301 (Human) [2]): 0.0014
B17: p53 peptide … (position 373) (peptide)
peptide: KGQSTSRHK

binding affinity ratio to standard peptide (HLA-A*1101 (human) [1]): 0.0052
B19: p53 peptide … (position 377) (peptide)
peptide: TSRHKKLMFK

IC50 (HLA-A*0206 (Human) [10]): 37 nM
IC50 (HLA-A*0203 (Human) [15]): 9.1 nM
B26: p53.132B4V9 KMFBQLAKV (peptide)
peptide: KMF[Abu]QLAKV

binding affinity ratio (IC50 of standard peptide/IC50 of test peptide) (HLA-A*0301 (Human) [9]): 0.05
binding affinity ratio (IC50 of standard peptide/IC50 of test peptide) (HLA-A*1101 (Human) [3]): 0.0052
binding affinity ratio (IC50 of standard peptide/IC50 of test peptide) (HLA-A*0301 (Human) [5]): 0.05
B27: p53 peptide … (position 377, 10 amino acids) (peptide)
peptide: TSRHKKLMFK

IC50 (HLA-A*0203 (human) [16]): 19.6 nM
IC50 (HLA-A*0206 (human) [17]): 92.5 nM
B29: … p53.132 (peptide)
peptide: KMFCQLAKT

binding affinity ratio (IC50 of standard peptide/IC50 of test peptide) (HLA-A*1101 (Human) [3]): 0.008
binding affinity ratio (IC50 of standard peptide/IC50 of test peptide) (HLA-A*0301 (Human) [5]): 3.3
B30: p53 peptide … (position 283, 10 amino acids) (peptide)
peptide: RTEEENLRKK
